Source: patent US20260021193A1 (IMMUNOME, published 2026)

B1: 4A5 (antibody, V domains shown)
VH: EVKLVESGGGLVKPGGSLKLSCAASGFTFSSYAMSWVRQIPEKRLEWVASISRGGTTYYPDSVKGRFTISRDNVRNILYLQMSSLRSEDTAMYYCGRYDYDGYYAMDYWGQGTSVTVSS
VL: DIKMTQSPSSMYASLGERVTITCKASPDINSYLSWFQQKPGKSPKTLIYRANRLVDGVPSRFSGGGSGQDYSLTINSLEYEDMGIYYCLQYDEFPYTFGGGTKLEMK
B2: UC-961 (ATX-P-453) (antibody, V domains shown)
VH: QVQLQESGPGLVKPSQTLSLTCTVSGYAFTAYNIHWVRQAPGQGLEWMGSFDPYDGGSSYNQKFKDRLTISKDTSKNQVVLTMTNMDPVDTATYYCARGWYYFDYWGHGTLVTVSS
VL: DIVMTQTPLSLPVTPGEPASISCRASKSISKYLAWYQQKPGQAPRLLIYSGSTLQSGIPPRFSGSGYGTDFTLTINNIESEDAAYYFCQQHDESPYTFGEGTKVEIK
B3: ATX-P-875 (antibody, V domains shown)
VH: not shown
VL: DIQMTQSPSSLSASVGDRVTITCRASQSISSYLNWYQQKPGKAPKLLIYAASSLQSGVPSRFSGSGSGTDFTLTISSLQPEDFATYYCQQYDNLPITFGQGTRLEIKR
B4: ATX-P-885 (antibody, V domains shown)
VH: QVQLQQWGAGLLKPSETLSLTCAVYGGSFSGYYWSWIRQPPGKGLEWIGEINHSGSTNYNPSLKSRVTISVDTSKNQFSLKLSSVTAADTAVYYCAREGVYEDYWGQGTLVTVSS
VL: EIVLTQSPATLSLSPGERATLSCRASQSVSNYLAWYQQKPGQAPRLLIYDAYNRATGIPARFSGSGSGTDFTLTISSLEPEDFAVYYCQQRSNWPLTFGQGTRLEIKR

Assays:
Hu/Cy/Rh ROR1 - His [1] = molecular target: T1, Hu/Cy/Rh ROR1 - His (Human/Cyno/Rhesus, UniProt Q01973 30-403, limits assumed); assay: SPR (Carterra), cell 'Kinetics (KD)' in the head and in the left column of the binning table, antigen Hu/Cy/Rh ROR1-His; no unit stands on the sheet, M is taken from Table 3, where the same KD values of the other four antibodies stand under KD (M)
T1 construct: Purified His-tagged ROR1 protein used in SPR; also called Human/Cyno/Rhesus ROR-1; not shown: His tag

Hu/Cy/Rh ROR1 - His [2] = molecular target: T1, Hu/Cy/Rh ROR1 - His; assay: SPR, purified Hu/Cy/Rh ROR1-His
[3] = molecular target: T2, human ROR-1 endogenously expressed on JeKo-1 and MDA-MB-468 cells (human, UniProt Q01973 30-937); assay: flow cytometry: titration of the antibody on ROR-1 positive JeKo-1 cells, secondary antibody staining, Net MFI
T2 construct: whole, on cells; also called ROR-1 receptor
Method: Cells were washed, stained with secondary antibody and cell binding saturation was detected by flow cytometry and reported as mean fluorescent intensity (MFI).
A cell binding saturation assay was developed to evaluate how well the anti-ROR-1 antibodies developed in Example 22 bound to endogenously expressed extracellular ROR-1 protein on cell lines. […] Cells were then washed and subjected to secondary antibody staining and detection by flow cytometry. Mean fluorescence (MFI) was determined by analysis on cytometer software. […] (See FIGS. 27A-27B).

[4] = molecular target: T2, human ROR-1 endogenously expressed on …; assay: as above; remark: listed apart in the source
[5] = molecular target: T2, human ROR-1 endogenously expressed on …; assay: cell-based or functional assay
[6] = molecular target: T2, human ROR-1 endogenously expressed on …; assay: flow cytometry (cellular binning): titration of the antibody on MDA-MB-468 cells, fluorescently labeled secondary antibody, % Top MFI
Method: (§1) Next, the anti-ROR-1 antibodies were fluorescently labeled with a secondary antibody.
(§2) In Step 2, a fluorescently labeled secondary antibody recognizing the novel antibodies was incubated with the samples.

[7] = molecular target: T2, human ROR-1 endogenously expressed on …; assay: flow cytometry competition (cellular binning) on MDA-MB-468 cells: cells coated with titrated ATX-P-875, then a saturating dose of the labeled competitor 4A5-PE, whose signal is plotted in % Top MFI
Method: as §1, §2

[8] = molecular target: T2, human ROR-1 endogenously expressed on …; assay: flow cytometry (cellular binning): titration of the antibody on MDA-MB-468 cells, fluorescently labeled secondary antibody, % Top MFI; remark: listed apart in the source
Method: as §1, §2

[9] = molecular target: T2, human ROR-1 endogenously expressed on …; assay: cell-based or functional assay; remark: listed apart in the source
Mouse ROR1 - His = molecular target: T3, Mouse ROR1 - His (Mouse, UniProt Q9Z139 30-403, limits assumed); assay: SPR, purified Mouse ROR1-His
T3 construct: Purified His-tagged mouse ROR1 protein used in SPR; not shown: His tag
T3 sequence (Q9Z139 30-403 limits assumed): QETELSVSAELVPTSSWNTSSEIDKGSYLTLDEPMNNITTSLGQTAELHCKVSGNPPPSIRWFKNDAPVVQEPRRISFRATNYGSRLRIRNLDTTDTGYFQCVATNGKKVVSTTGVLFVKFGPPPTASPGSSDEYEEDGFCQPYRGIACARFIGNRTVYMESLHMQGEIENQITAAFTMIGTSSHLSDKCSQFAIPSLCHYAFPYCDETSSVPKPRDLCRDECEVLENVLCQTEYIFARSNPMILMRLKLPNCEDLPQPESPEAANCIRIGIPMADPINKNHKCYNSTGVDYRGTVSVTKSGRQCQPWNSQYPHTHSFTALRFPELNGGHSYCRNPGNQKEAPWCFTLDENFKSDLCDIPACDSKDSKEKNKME

[10] = molecular target: T2, human ROR-1 endogenously expressed on …; assay: flow cytometry (cellular binning): titration of the antibody on MDA-MB-468 cells, fluorescently labeled secondary antibody, % Top MFI; remark: listed apart in the source
Method: as §1, §2

[11] = molecular target: T2, human ROR-1 endogenously expressed on …; assay: flow cytometry competition (cellular binning) on MDA-MB-468 cells: cells coated with titrated ATX-P-885, then a saturating dose of the labeled competitor Dy650-UC961, whose signal is plotted in % Top MFI
Method: as §1, §2

Binder	Kd (Hu/Cy/Rh ROR1 - His [1])	Kd (Hu/Cy/Rh ROR1 - His [2])	koff (Hu/Cy/Rh ROR1 - His [2])	kon (Hu/Cy/Rh ROR1 - His [2])	EC50 (read off the curve) [3]	EC50 (read off the curve) [4]	JeKo-1 (%) cellular internalization [5]	MDA-MB-468(%) cellular internalization [5]	EC50 (read off the curve) [6]	IC50 (read off the curve) [7]	EC50 (read off the curve) [8]	ROR-1 receptor internalization on JeKo-1 and MDA-MB-468 cells (reduction of surface antibody over 4 hours, flow cytometry) [9]	Kd (Mouse ROR1 - His)	koff (Mouse ROR1 - His)	kon (Mouse ROR1 - His)	EC50 (read off the curve) [10]	IC50 (read off the curve) [11]
B1	2.81 nM	–	–	–	–	–	–	–	–	–	–	–	–	–	–	–	–
B2	–	4.69 nM	0.00591 s⁻¹	1.26e+06 M⁻¹ s⁻¹	~0.1 nM	~0.02 nM	75%	80%	–	–	–	–	–	–	–	–	–
B3	–	–	–	–	–	–	75%	89%	~0.5 nM	~0.7 nM	~0.9 nM	≥ 75%	–	–	–	–	–
B4	–	10.9 nM	0.00295 s⁻¹	270000 M⁻¹ s⁻¹	~0.3 nM	–	75%	89%	–	–	~3 nM	≥ 75%	45.3 nM	0.00132 s⁻¹	29200 M⁻¹ s⁻¹	~2 nM	~3 nM
